Laboratory results published in ChEMBL document CHEMBL4673265, “The food-grade antimicrobial xanthorrhizol targets the enoyl-ACP reductase (FabI) in Escherichia coli” (Bioorg Med Chem Lett, 2020).
Values after ≈ are worked out from the molar mass of the structure shown.

Columns and labels:
Escherichia coli [1] = test: Antimicrobial activity against Escherichia coli ATCC 35218; type: functional
[2] = system: Mycobacterium tuberculosis; test: Antibacterial activity against Mycobacterium tuberculosis H37Rv ATCC 27294 incubated for 7 days by microplate alamar blue assay; type: functional; conditions: 168 h, time 7 day
[3] = biological target: T1, Enoyl-[acyl-carrier-protein] reductase [NADH] FabI (Escherichia coli K-12, UniProt P0AEK4); test: Inhibition of Escherichia coli FabI using trans-2-[…]-N-acetylcysteamine as substrate by spectrophotometry
T1 sequence (P0AEK4 whole entry): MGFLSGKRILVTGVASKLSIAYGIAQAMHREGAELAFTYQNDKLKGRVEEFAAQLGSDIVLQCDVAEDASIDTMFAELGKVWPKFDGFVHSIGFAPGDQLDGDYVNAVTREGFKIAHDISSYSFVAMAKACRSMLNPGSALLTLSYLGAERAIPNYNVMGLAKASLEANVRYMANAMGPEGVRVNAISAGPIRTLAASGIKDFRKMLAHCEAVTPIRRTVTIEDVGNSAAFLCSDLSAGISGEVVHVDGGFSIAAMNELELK

Escherichia coli [4] = test: Antibacterial activity against Escherichia coli BW25113 assessed as effect on growth rate per hour at 0.128 uM incubated for 24 hrs by microplate reader; type: functional
Escherichia coli [5] = test: Antimicrobial activity against Escherichia coli W3110 imp4213 assessed as absence of growth; type: functional
Escherichia coli [6] = test: Antimicrobial activity against Escherichia coli W3110 imp4213 expressing pCA24N-fab/ Y156V mutant assessed as absence of growth; type: functional
Escherichia coli [7] = test: Antimicrobial activity against Escherichia coli W3110 imp4213 expressing pCA24N-fab F203L mutant assessed as absence of growth; type: functional
Escherichia coli [8] = test: Antimicrobial activity against Escherichia coli W3110 imp4213 expressing pCA24N-fab F204V mutant assessed as absence of growth; type: functional
Escherichia coli [9] = test: Antimicrobial activity against Escherichia coli W3110 imp4213 expressing fabI392 mutant assessed as absence of growth; type: functional
Escherichia coli [10] = test: Antimicrobial activity against Escherichia coli W3110 imp4213 expressing pCA24N mutant assessed as absence of growth; type: functional
Escherichia coli [11] = test: Antimicrobial activity against Escherichia coli W3110 imp4213 expressing pCA24N-fabI mutant assessed as absence of growth; type: functional
Escherichia coli [12] = test: Antimicrobial activity against Escherichia coli W3110 imp4213 expressing fabI G93V mutant assessed as absence of growth; type: functional
[13] = Inhibition of Staphylococcus aureus FabI assessed as incorporation of [1-14C]acetate to L-[U-14C]leucine
Staphylococcus aureus = test: Antimicrobial activity against Staphylococcus aureus assessed as complete inhibition of growth after 24 hrs by broth microdilution method; type: functional
[14] = compound: NC(=O)C1=CN([C@@H]2O[C@H](COP(=O)(O)OP(=O)(O)OC[C@H]3O[C@@H](n4cnc5c(N)ncnc54)[C@H](O)[C@@H]3O)[C@@H](O)[C@H]2O)C=CC1; test: Inhibition of wild-type Escherichia coli FabI assessed as ratio of Kcat/Km
[15] = compound: NC(=O)C1=CN([C@@H]2O[C@H](COP(=O)(O)OP(=O)(O)OC[C@H]3O[C@@H](n4cnc5c(N)ncnc54)[C@H](O)[C@@H]3O)[C@@H](O)[C@H]2O)C=CC1; test: Inhibition of wild-type Escherichia coli FabI catalytic activity
[16] = compound: NC(=O)C1=CN([C@@H]2O[C@H](COP(=O)(O)OP(=O)(O)OC[C@H]3O[C@@H](n4cnc5c(N)ncnc54)[C@H](O)[C@@H]3O)[C@@H](O)[C@H]2O)C=CC1; test: Inhibition of wild-type Escherichia coli FabI assessed as reduction in Km
[17] = compound: CC(C)=CCC[C@@H](C)c1ccc(C)c(O)c1; test: Uncompetitive inhibition of Escherichia coli FabI G93V mutant assessed inhibition constant using NADH as substrate by Lineweaver-Burk analysis
[18] = compound: NC(=O)C1=CN([C@@H]2O[C@H](COP(=O)(O)OP(=O)(O)OC[C@H]3O[C@@H](n4cnc5c(N)ncnc54)[C@H](O)[C@@H]3O)[C@@H](O)[C@H]2O)C=CC1; test: Inhibition of Escherichia coli FabI G93V mutant assessed as ratio of Kcat/Km
[19] = compound: NC(=O)C1=CN([C@@H]2O[C@H](COP(=O)(O)OP(=O)(O)OC[C@H]3O[C@@H](n4cnc5c(N)ncnc54)[C@H](O)[C@@H]3O)[C@@H](O)[C@H]2O)C=CC1; test: Inhibition of Escherichia coli FabI G93V mutant assessed as reduction in Km
[20] = compound: NC(=O)C1=CN([C@@H]2O[C@H](COP(=O)(O)OP(=O)(O)OC[C@H]3O[C@@H](n4cnc5c(N)ncnc54)[C@H](O)[C@@H]3O)[C@@H](O)[C@H]2O)C=CC1; test: Inhibition of Escherichia coli FabI G93V mutant catalytic activity
[21] = compound: NC(=O)C1=CN([C@@H]2O[C@H](COP(=O)(O)OP(=O)(O)OC[C@H]3O[C@@H](n4cnc5c(N)ncnc54)[C@H](O)[C@@H]3O)[C@@H](O)[C@H]2O)C=CC1; test: Inhibition of Escherichia coli FabI F203L mutant assessed as ratio of Kcat/Km
[22] = compound: NC(=O)C1=CN([C@@H]2O[C@H](COP(=O)(O)OP(=O)(O)OC[C@H]3O[C@@H](n4cnc5c(N)ncnc54)[C@H](O)[C@@H]3O)[C@@H](O)[C@H]2O)C=CC1; test: Inhibition of Escherichia coli FabI F203L mutant assessed as reduction in Km
[23] = compound: NC(=O)C1=CN([C@@H]2O[C@H](COP(=O)(O)OP(=O)(O)OC[C@H]3O[C@@H](n4cnc5c(N)ncnc54)[C@H](O)[C@@H]3O)[C@@H](O)[C@H]2O)C=CC1; test: Inhibition of Escherichia coli FabI F203L mutant catalytic activity
[24] = compound: NC(=O)C1=CN([C@@H]2O[C@H](COP(=O)(O)OP(=O)(O)OC[C@H]3O[C@@H](n4cnc5c(N)ncnc54)[C@H](O)[C@@H]3O)[C@@H](O)[C@H]2O)C=CC1; test: Inhibition of Escherichia coli FabI Y156V mutant catalytic activity
[25] = compound: NC(=O)C1=CN([C@@H]2O[C@H](COP(=O)(O)OP(=O)(O)OC[C@H]3O[C@@H](n4cnc5c(N)ncnc54)[C@H](O)[C@@H]3O)[C@@H](O)[C@H]2O)C=CC1; test: Inhibition of Escherichia coli FabI Y156V mutant assessed as ratio of Kcat/Km
[26] = compound: NC(=O)C1=CN([C@@H]2O[C@H](COP(=O)(O)OP(=O)(O)OC[C@H]3O[C@@H](n4cnc5c(N)ncnc54)[C@H](O)[C@@H]3O)[C@@H](O)[C@H]2O)C=CC1; test: Inhibition of Escherichia coli FabI Y156V mutant assessed as reduction in Km
[27] = compound: NC(=O)C1=CN([C@@H]2O[C@H](COP(=O)(O)OP(=O)(O)OC[C@H]3O[C@@H](n4cnc5c(N)ncnc54)[C@H](O)[C@@H]3O)[C@@H](O)[C@H]2O)C=CC1; test: Inhibition of Escherichia coli FabI F203V mutant catalytic activity
[28] = compound: NC(=O)C1=CN([C@@H]2O[C@H](COP(=O)(O)OP(=O)(O)OC[C@H]3O[C@@H](n4cnc5c(N)ncnc54)[C@H](O)[C@@H]3O)[C@@H](O)[C@H]2O)C=CC1; test: Inhibition of Escherichia coli FabI F203V mutant assessed as ratio of Kcat/Km
[29] = compound: NC(=O)C1=CN([C@@H]2O[C@H](COP(=O)(O)OP(=O)(O)OC[C@H]3O[C@@H](n4cnc5c(N)ncnc54)[C@H](O)[C@@H]3O)[C@@H](O)[C@H]2O)C=CC1; test: Inhibition of Escherichia coli FabI F203V mutant assessed as reduction in Km

## C=C1C(=O)OCC1C/C=C(\C)CC(=O)C=C(C)C (stereo not given) [ANTHECOTULIDE]
Escherichia coli [1]
  MIC: 25 µg/mL (≈ 101 µM)
[2]
  MIC: 20.2 µg/mL (≈ 81.3 µM)

## O=C(O[C@@H]1Cc2c(O)cc(O)cc2O[C@@H]1c1cc(O)c(O)c(O)c1)c1cc(O)c(O)c(O)c1 [EPIGALOCATECHIN GALLATE]
[3]
  IC50: 5 µM

## Oc1cc(Cl)ccc1Oc1ccc(Cl)cc1Cl [TRICLOSAN]
Escherichia coli [4]
  Activity: 0.4
Escherichia coli [5]
  MIC: 0.02 µg/mL (≈ 0.0691 µM)
Escherichia coli [6]
  MIC: 2.05 µg/mL (≈ 7.07 µM)
Escherichia coli [7]
  MIC: > 2.05 µg/mL
Escherichia coli [8]
  MIC: 2.05 µg/mL (≈ 7.07 µM)
Escherichia coli [9]
  MIC: 0.002 µg/mL (≈ 0.00691 µM)
Escherichia coli [10]
  MIC: 0.02 µg/mL (≈ 0.0691 µM)
Escherichia coli [11]
  MIC: 0.512 µg/mL (≈ 1.77 µM)
Escherichia coli [12]
  MIC: > 1.28 µg/mL

## CC(=O)c1cc2c(=O)c3c(C(=O)O)c(O)c(O)cc3oc2c(C(C)=O)c1-c1coc2cc(O)c(O)c(C(=O)O)c2c1=O [VINAXANTHONE]
[13]
  IC50: 0.9 µM
Staphylococcus aureus
  MIC: 32 µg/mL (≈ 55.5 µM)

B1: Enoyl-[acyl-carrier-protein] reductase [NADH] FabI (Escherichia coli K-12), P0AEK4 (protein)
chain: MGFLSGKRILVTGVASKLSIAYGIAQAMHREGAELAFTYQNDKLKGRVEEFAAQLGSDIVLQCDVAEDASIDTMFAELGKVWPKFDGFVHSIGFAPGDQLDGDYVNAVTREGFKIAHDISSYSFVAMAKACRSMLNPGSALLTLSYLGAERAIPNYNVMGLAKASLEANVRYMANAMGPEGVRVNAISAGPIRTLAASGIKDFRKMLAHCEAVTPIRRTVTIEDVGNSAAFLCSDLSAGISGEVVHVDGGFSIAAMNELELK
[14]
  kcat/Km: 150000 M⁻¹ s⁻¹
[15]
  kcat: 10.8 s⁻¹
[16]
  Km: 70.2 µM

B2: Enoyl-[acyl-carrier-protein] reductase [NADH] FabI (Escherichia coli K-12), P0AEK4 G93V (protein)
chain: MGFLSGKRILVTGVASKLSIAYGIAQAMHREGAELAFTYQNDKLKGRVEEFAAQLGSDIVLQCDVAEDASIDTMFAELGKVWPKFDGFVHSIVFAPGDQLDGDYVNAVTREGFKIAHDISSYSFVAMAKACRSMLNPGSALLTLSYLGAERAIPNYNVMGLAKASLEANVRYMANAMGPEGVRVNAISAGPIRTLAASGIKDFRKMLAHCEAVTPIRRTVTIEDVGNSAAFLCSDLSAGISGEVVHVDGGFSIAAMNELELK
[17]
  Ki: 4.1 µM
[18]
  kcat/Km: 110000 M⁻¹ s⁻¹
[19]
  Km: 30.9 µM
[20]
  kcat: 3.44 s⁻¹

B3: Enoyl-[acyl-carrier-protein] reductase [NADH] FabI (Escherichia coli K-12), P0AEK4 F203L (protein)
chain: MGFLSGKRILVTGVASKLSIAYGIAQAMHREGAELAFTYQNDKLKGRVEEFAAQLGSDIVLQCDVAEDASIDTMFAELGKVWPKFDGFVHSIGFAPGDQLDGDYVNAVTREGFKIAHDISSYSFVAMAKACRSMLNPGSALLTLSYLGAERAIPNYNVMGLAKASLEANVRYMANAMGPEGVRVNAISAGPIRTLAASGIKDLRKMLAHCEAVTPIRRTVTIEDVGNSAAFLCSDLSAGISGEVVHVDGGFSIAAMNELELK
[21]
  kcat/Km: 70000 M⁻¹ s⁻¹
[22]
  Km: 51.5 µM
[23]
  kcat: 3.65 s⁻¹

B4: Enoyl-[acyl-carrier-protein] reductase [NADH] FabI (Escherichia coli K-12), P0AEK4 Y156V (protein)
chain: MGFLSGKRILVTGVASKLSIAYGIAQAMHREGAELAFTYQNDKLKGRVEEFAAQLGSDIVLQCDVAEDASIDTMFAELGKVWPKFDGFVHSIGFAPGDQLDGDYVNAVTREGFKIAHDISSYSFVAMAKACRSMLNPGSALLTLSYLGAERAIPNVNVMGLAKASLEANVRYMANAMGPEGVRVNAISAGPIRTLAASGIKDFRKMLAHCEAVTPIRRTVTIEDVGNSAAFLCSDLSAGISGEVVHVDGGFSIAAMNELELK
[24]
  kcat: 0.16 s⁻¹
[25]
  kcat/Km: 4000 M⁻¹ s⁻¹
[26]
  Km: 41.7 µM

B5: Enoyl-[acyl-carrier-protein] reductase [NADH] FabI (Escherichia coli K-12), P0AEK4 F203V (protein)
chain: MGFLSGKRILVTGVASKLSIAYGIAQAMHREGAELAFTYQNDKLKGRVEEFAAQLGSDIVLQCDVAEDASIDTMFAELGKVWPKFDGFVHSIGFAPGDQLDGDYVNAVTREGFKIAHDISSYSFVAMAKACRSMLNPGSALLTLSYLGAERAIPNYNVMGLAKASLEANVRYMANAMGPEGVRVNAISAGPIRTLAASGIKDVRKMLAHCEAVTPIRRTVTIEDVGNSAAFLCSDLSAGISGEVVHVDGGFSIAAMNELELK
[27]
  kcat: 0.38 s⁻¹
[28]
  kcat/Km: 9000 M⁻¹ s⁻¹
[29]
  Km: 44.2 µM
